# Assay results from the supplement of paper PMC10724198.
# ± gives the standard deviation of the averaged measurements.
# Tested on: Saccharomyces cerevisiae
# Assay: protein stability index of tFT-peptide fusion (C-terminal peptide) (PSI (0-1 scale)); higher = more stable (slower turnover)
# Conditions: genetic background: wild type; temperature: 30 C
# Description: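 Multiplexed protein stability (MPS) profiling in S. cerevisiae. Random 12-aa peptides (tFT-X12 library) are fused to the C-terminus of a sfGFP-mCherry tandem fluorescent timer, after mCherry and a GGGS linker. Cells are FACS-sorted into 8 mCherry/sfGFP bins and deep-sequenced. The protein stability index (PSI) is the read-weighted bin average, scaled from 0 (unstable) to 1 (stable). Only peptides with >10 reads are reported; cells were grown at 30 °C in SC-His with glucose.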
# 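Note: PSI is a weighted mean of sequencing reads over stability bins, variants kept only with over 10 reads, mCherry proximal and sfGFP distal, peptide attached via GGGS linker.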
row,Sequence,protein stability index
1,VREKNHTLQMET,0.646 ± 0.017
2,PLTPVRCSICSV,0.64 ± 0.037
3,GGVRGVRGRGVG,0.639 ± 0.049
4,PIYQTYSRHSYL,0.683 ± 0.0089
5,CPLSPLPSSAAP,0.681 ± 0.042
6,SLPLLSLPLLDF,0.535 ± 0.02
7,PRPDPAPPAALP,0.6017 ± 0.0057
8,AENHCIASRIGH,0.659 ± 0.019
9,RFKCVKPPLPRR,0.715 ± 0.03
10,GTEFIIDIQIFV,0.547 ± 0.02
11,GKRKREEDEEKK,0.686 ± 0.097
12,RFLISYFYKVIR,0.56 ± 0.034
13,SPRTVCPELHFI,0.691 ± 0.044
14,VRSLSSPPAPAT,0.736 ± 0.038
15,PRDRLIRNHVTR,0.716 ± 0.086
16,GERWSGVGEWVW,0.739 ± 0.014
17,PQYLSGFDIHNG,0.728 ± 0.052
18,GWGWGSMDLRDR,0.6919 ± 0.0024
19,GFVRGDRSGGGG,0.72 ± 0.0085
20,AFLLSSIRPSLR,0.7486 ± 0.005
21,TQTLLQRTYREG,0.722 ± 0.09

row,Sequence,protein stability index
1,SVLPSLRPGSGL,0.707 ± 0.016
2,DGFWGGASHQGW,0.699 ± 0.0089
3,SRFAGVGGGGAR,0.667 ± 0.0071
4,GGGNEDCLRGGY,0.651 ± 0.056
5,IPDPSPFTCPNV,0.557 ± 0.02
6,LHNQTLLLSEDD,0.652 ± 0.037
7,LVQCSAISARRF,0.735 ± 0.026
8,KPGGQRTRTRRR,0.622 ± 0.025
9,VHVLLSGVICAL,0.471 ± 0.061
10,SDFGSFRFRSIV,0.5773 ± 0.0018
11,PTPFVPSPPCRA,0.664 ± 0.041
12,LGFDRGGGVAGM,0.674 ± 0.034
13,ASGGWGVGCPGV,0.716 ± 0.041
14,PPPPVPPPALPL,0.644 ± 0.045
15,ICIKKNTLTKTE,0.669 ± 0.012
16,PTARGACRAPRS,0.667 ± 0.037
17,ATSYRPPHFAIP,0.693 ± 0.011
18,EPDCLVSSSVGI,0.686 ± 0.049
19,VPLRVSLGCDAF,0.67 ± 0.04
20,HISHPTGDVQTP,0.627 ± 0.083
21,SCVTLTGLSGDK,0.698 ± 0.016

row,Sequence,protein stability index
1,LLPGPYPLLSDN,0.732 ± 0.025
2,PPDPNCLPKQTS,0.752 ± 0.058
3,GPLPYISLSFSP,0.7304 ± 0.0028
4,GTGEMNDKDQEE,0.798 ± 0.12
5,TLPPPRPSPSSP,0.689 ± 0.035
6,IDFNWESSTMNI,0.7438 ± 0.0058
7,PPKEEPRWATGD,0.693 ± 0.043
8,LEGTGDRFALCG,0.659 ± 0.023
9,VRALCRYRTVNG,0.685 ± 0.035
10,KKKKKKQKHKKI,0.718 ± 0.033
11,GVGWGDVWGCGE,0.741 ± 0.038
12,GEKQVDGGDGQR,0.6985 ± 0.0012
13,TSRSPLVAPNPS,0.738 ± 0.083
14,RGTGGGSESGVK,0.661 ± 0.063
15,ALRPYDVQVKFR,0.622 ± 0.038
16,KVSTWKISRISG,0.55 ± 0.026
17,HPPTPPPPFPPP,0.659 ± 0.018
18,GGGGSRRGVGDR,0.687 ± 0.013
19,DSTTGALILLPV,0.692 ± 0.021
20,VWKEPVQYSRQL,0.626 ± 0.051
21,PARLPSPSHPAS,0.776 ± 0.063

row,Sequence,protein stability index
1,DVERKKIKIARQ,0.714 ± 0.047
2,HKSRHSPKPPFT,0.6677 ± 0.0026
3,VVRLKRLPPCSS,0.699 ± 0.077
4,EVTRAGEDAGDG,0.643 ± 0.023
5,RTGTIPAPFHHE,0.675 ± 0.0074
6,RPLLPPVLPPPL,0.684 ± 0.019
7,FVLLGVRGVAGW,0.709 ± 0.02
8,PPRGAPWTRPPQ,0.691 ± 0.015
9,IFPNSGKIEVLA,0.574 ± 0.016
10,VTGRTGGMWGAL,0.754 ± 0.085
11,GVLRIRIGLGRG,0.653 ± 0.028
12,VLSFALGSAGGR,0.678 ± 0.069
13,VVTRANVRRDKM,0.672 ± 0.023
14,AVVRGRADCVMV,0.656 ± 0.017
15,SPPLPPPSPTPP,0.699 ± 0.016
16,IWGGGKGRAGRH,0.651 ± 0.041
17,VCCAQVCICCLR,0.58 ± 0.017
18,QQMSLRKNQKVK,0.7 ± 0.066
